Experimental data taken from article PMC9797058.

Columns and labels:
LRP1 (Homo sapiens) = LRP1 (Homo sapiens) (UniProt Q07954); conditions: cited from earlier work
[1] = molecular target: N-terminally His-tagged Pasteurella multocida toxin (PMT) (Pasteurella multocida) (UniProt P17452); assay: ELISA; solid-phase binding assay; His-PMT coated at 10 ug/mL (500 ng/well) on 96-well Maxisorb plates at 4 C overnight; LRP1 cluster 2, 3 or 4 at 0.02-500 nM, RT, 2 h; TBS with 2 mM CaCl2; bound ligand detected with goat anti-human IgG-HRP
UniProt P17452, sequence (P17452 whole entry): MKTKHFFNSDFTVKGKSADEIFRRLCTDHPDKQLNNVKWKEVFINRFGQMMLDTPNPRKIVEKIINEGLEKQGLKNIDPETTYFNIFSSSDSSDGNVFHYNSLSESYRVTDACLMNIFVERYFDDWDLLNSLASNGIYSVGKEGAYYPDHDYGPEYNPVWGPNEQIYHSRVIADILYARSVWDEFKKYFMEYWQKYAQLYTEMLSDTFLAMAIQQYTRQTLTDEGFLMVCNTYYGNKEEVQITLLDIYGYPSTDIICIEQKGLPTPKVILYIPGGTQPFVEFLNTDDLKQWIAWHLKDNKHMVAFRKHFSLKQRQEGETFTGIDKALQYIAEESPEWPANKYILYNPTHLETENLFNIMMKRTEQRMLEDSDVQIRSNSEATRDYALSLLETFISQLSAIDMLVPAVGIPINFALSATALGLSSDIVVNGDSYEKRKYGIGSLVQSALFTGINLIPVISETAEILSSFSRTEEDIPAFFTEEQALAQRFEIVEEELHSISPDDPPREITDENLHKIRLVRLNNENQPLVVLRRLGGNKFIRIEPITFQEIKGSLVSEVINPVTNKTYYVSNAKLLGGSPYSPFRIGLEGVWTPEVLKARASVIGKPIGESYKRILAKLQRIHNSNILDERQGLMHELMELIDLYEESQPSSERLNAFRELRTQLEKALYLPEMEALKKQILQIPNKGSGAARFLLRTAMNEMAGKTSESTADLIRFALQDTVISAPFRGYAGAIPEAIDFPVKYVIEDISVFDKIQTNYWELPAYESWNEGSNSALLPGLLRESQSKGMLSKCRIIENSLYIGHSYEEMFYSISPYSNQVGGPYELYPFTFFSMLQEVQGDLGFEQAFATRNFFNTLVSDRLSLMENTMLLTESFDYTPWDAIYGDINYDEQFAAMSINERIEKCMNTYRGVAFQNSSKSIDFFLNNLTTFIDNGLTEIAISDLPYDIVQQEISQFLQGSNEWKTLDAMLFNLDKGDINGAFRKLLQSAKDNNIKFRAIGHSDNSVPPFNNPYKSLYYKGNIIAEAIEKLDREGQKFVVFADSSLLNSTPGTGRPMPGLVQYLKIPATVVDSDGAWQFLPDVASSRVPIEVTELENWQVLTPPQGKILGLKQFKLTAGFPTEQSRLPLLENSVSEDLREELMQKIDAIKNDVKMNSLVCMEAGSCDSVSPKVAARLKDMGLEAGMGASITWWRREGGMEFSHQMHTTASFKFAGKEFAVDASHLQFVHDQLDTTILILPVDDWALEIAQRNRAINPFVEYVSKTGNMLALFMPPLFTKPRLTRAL

## Pseudomonas exotoxin A (from UniProt P11439)
LRP1 (Homo sapiens)
  Kd: 5.2 nM

## LRP1 cluster 2 (commercially available extracellular domain) (from UniProt Q07954 20-4544) (domain or fragment)
[1]
  Kd: 41.6 nM

## LRP1 cluster 4 (commercially available extracellular domain) (from UniProt Q07954 20-4544) (domain or fragment)
[1]
  Kd: 2.28 nM
